These results are taken from publication PMC5100589.

For one series, the target named is YY1(F1-4) (human, UniProt P25490 292-414). Description: MST.
Another series addresses GST-YY1(F1-4) (human, UniProt P25490 292-414). Description: competition.
The next series addresses YY1(F1-4) H325A (human, UniProt P25490 292-414, H325A). Description: EMSA. (Mobility shift assays separate free from complexed probe on a gel.)
Another series deals with YY1(F1-4) Q344A (human, UniProt P25490 292-414, Q344A). Briefly: EMSA.
YY1(F1-4) Q344A, sequence (P25490 292-414 Q344A): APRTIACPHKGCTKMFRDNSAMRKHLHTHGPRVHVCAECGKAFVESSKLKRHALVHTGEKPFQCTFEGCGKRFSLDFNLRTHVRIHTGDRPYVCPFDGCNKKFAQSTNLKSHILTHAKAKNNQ
In a further series the target is YY1(F1-4) R323A (human, UniProt P25490 292-414, R323A). Description: EMSA.
YY1(F1-4) R323A, sequence (P25490 292-414 R323A): as the sequence (P25490 292-414 Q344A) above, with R32A, A53Q counted along it
The next series deals with YY1(mut5) (human, UniProt P25490 292-414, V324A;H325A;V326A;L340A;Q344A). Briefly: MST.
YY1(mut5), sequence (P25490 292-414 V324A/H325A/V326A/L340A/Q344A): as the sequence (P25490 292-414 Q344A) above, with V33A, H34A, V35A, L49A counted along it

YY1(F1-4), sequence (P25490 292-414): as the sequence (P25490 292-414 Q344A) above, with A53Q counted along it
GST-YY1(F1-4), sequence (P25490 292-414): as the sequence (P25490 292-414 Q344A) above, with A53Q counted along it
YY1(F1-4) H325A, sequence (P25490 292-414 H325A): as the sequence (P25490 292-414 Q344A) above, with H34A, A53Q counted along it

The term Kd denotes the concentration at which binding is half-saturated. A higher Kd goes with weaker binding. For the molecule AAAAAAAAAAAAAA (ssRNA) [poly(A) RNA], the affinity with YY1(F1-4), expressed as Kd, was 4.2 ± 0.5 µM.

B1: AAV P5 dsDNA (dsDNA)
DNA 1: AGGGTCTCCATTTTGAAGCG
DNA 2: CGCTTCAAAATGGAGACCCT
On to B1, for which, in the series with GST-YY1(F1-4), the binding result was “binds”.

Turning to AGGCGAUGGUGAGC (ssRNA) [m2 RNA], the binding result with YY1(F1-4) H325A, in the series with YY1(F1-4) Q344A and with YY1(F1-4) R323A was “binds” throughout. For the same molecule, the figures for the Kd with YY1(F1-4) and with YY1(mut5) were 3.8 ± 0.6 µM and 31 ± 9 µM, respectively.
